From patent US20190218296A1 (APEXIGEN, published 2019)
Blank lines part the entries; values can stand above or below the binder they belong to.

Tests used:
recombinant human PD-L1 [1] = biological target: T1, recombinant human PD-L1 (human, UniProt Q9NZQ7 19-238, limits assumed); experiment: ELISA on human PD-L1, OD 650 nm
T1 construct: also called PD-L1 protein

human PD-L1 on cells [2] = biological target: T2, human PD-L1 on cells (human, UniProt Q9NZQ7 19-290); experiment: flow cytometry on HEK PD-L1 cells, MFI
T2 construct: whole, on cells; also called HEK-PD-L1 cells; PD-L1-expressing HEK 293 cells
T2 sequence (Q9NZQ7 19-290): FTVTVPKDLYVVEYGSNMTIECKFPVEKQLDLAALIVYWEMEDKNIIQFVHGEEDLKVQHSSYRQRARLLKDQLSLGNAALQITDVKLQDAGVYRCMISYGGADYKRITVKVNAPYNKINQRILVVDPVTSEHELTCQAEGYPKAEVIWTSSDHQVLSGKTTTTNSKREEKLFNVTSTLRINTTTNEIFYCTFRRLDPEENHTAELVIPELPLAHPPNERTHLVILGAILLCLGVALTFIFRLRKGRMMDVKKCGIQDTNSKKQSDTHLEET

human PD-L1 on cells [3] = biological target: T2, human PD-L1 on cells; experiment: flow cytometry on activated CD4 T cells, MFI
human PD-L1 on cells [4] = biological target: T2, human PD-L1 on cells; experiment: flow cytometry on HEK-PD-L1 cells; PE anti-human Fc, MFI
human PD-L1 on cells [5] = biological target: T2, human PD-L1 on cells; experiment: flow cytometry on monocyte-derived dendritic cells, MFI
human PD-L1 on cells [6] = biological target: T2, human PD-L1 on cells; experiment: flow cytometry on HEK PD-L1 cells, saturation fit on a linear axis
human PD-L1 on cells [7] = biological target: T2, human PD-L1 on cells; experiment: flow cytometry on activated CD4 T cells, saturation fit on a linear axis
human PD-L1 on cells [8] = biological target: T2, human PD-L1 on cells; experiment: flow cytometry on monocyte-derived dendritic cells, saturation fit on a linear axis
human PD-L1 on cells [9] = biological target: T2, human PD-L1 on cells; experiment: flow cytometry on HEK-PD-L1 cells, saturation fit on a linear axis; column head prints only Kd, unit taken from the axis Ab (nM)
[10] = biological target: T3, human PD-L1-his (Sino Biologics) (human, UniProt Q9NZQ7 19-238); experiment: competition ELISA: human PD-L1-his coated at 1 µg/ml, antibody dilutions, then human PD-1-mouse-Fc at 1 µg/ml, anti-mouse IgG-HRP, OD 650 nm
T3 construct: Bought from Sino Biologics; not shown: his tag
T3 sequence (Q9NZQ7 19-238 limits assumed): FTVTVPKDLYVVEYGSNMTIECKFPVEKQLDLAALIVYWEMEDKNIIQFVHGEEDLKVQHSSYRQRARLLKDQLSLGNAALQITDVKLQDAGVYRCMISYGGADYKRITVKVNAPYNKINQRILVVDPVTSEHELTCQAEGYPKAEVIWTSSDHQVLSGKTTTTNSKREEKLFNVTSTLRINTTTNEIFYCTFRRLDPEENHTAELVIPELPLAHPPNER
Experimental: Plates were coated with 100 μl of 1 μg/ml human PD-L1-his (Sino Biologics, Beijing, China) in carbonate-bicarbonate buffer overnight. After washing, plates were blocked with PBS 0.05% Tween-20 for 1 hour, and serial dilutions of anti-PD-L1 human chimeric antibody or IgG1 isotype control antibody was added. […] After washing, goat anti-mouse IgG (H+L)-HRP antibody (Jackson ImmunoResearch West Grove, Pa.) and plates were further incubated for 1 hour. After washing, TMB substrate (SurModics, Eden Prairie, Minn.) was added. The reaction was stopped using stop solution (SurModics) and plates were read at OD=650 nanometer.

human PD-L1 on cells [11] = biological target: T2, human PD-L1 on cells; experiment: flow cytometry on monocyte-derived dendritic cells; PE anti-human Fc, MFI
Experimental: The chimeric PD-L1 antibodies were further assessed for their ability to bind to human myeloid-derived dendritic cells. CD14 monocytes were isolated from PBMC using directly conjugated magnetic beads (Miltenyi) and cultured for 7 days in the presence of GM-CSF (100 ng/ml) and IL-4 (50 ng/ml) (Peprotech) to generate myeloid dendritic cells (mDC). mDC were added to 96-well plates (100,000 cells/well) and serial dilution of anti-PD-L1 antibodies or IgG1 isotype control antibody was added in duplicates and plates were incubated for 30 min on ice. After washing, a PE-conjugated donkey anti-human Fc specific antibody (Jackson Immunoresearch, 1:200 dilution) was added and plates were further incubated for 15 minutes on ice. After washing, cells were analyzed using a MACS quant flow cytometer.

human PD-L1 on cells [12] = biological target: T2, human PD-L1 on cells; experiment: flow cytometry on human PD-L1 transfected HEK 293 cells; PE anti-human Fc, MFI
Experimental: Stable human PD-L1 transfected HEK 293 cells (Crown Bio, San Diego, Calif.) were added to 96-well plates (100,000 cells/well) and serial dilution of anti-PD-L1 antibodies or IgG1 isotype control antibody was added in duplicates and plates were incubated for 30 minutes on ice. After washing, a PE-conjugated donkey anti-human Fc specific antibody (Jackson Immunoresearch, West Grove, Pa. 1:200 dilution) was added and plates were further incubated for 15 minutes on ice. After washing, cells were analyzed using a MACS quant flow cytometer.

recombinant human PD-L1 [13] = biological target: T1, recombinant human PD-L1; experiment: direct ELISA on plate-coated recombinant human PD-L1; anti-human Fc-HRP, TMB, OD 650 nm
Experimental: (§1) To assess specificity of the selected clones, a direct ELISA for human and cynomolgus monkey PD-L1 was performed. ELISA plates were coated with recombinant human or cynomolgus monkey PD-L1. […] Serial dilutions of chimeric anti-PD-L1 antibodies were added, and a secondary HRP-conjugated, anti-human Fc-specific antibody was added. After washing, TMB substrate was added and plates were read at OD 650 nm.

[14] = biological target: T4, recombinant cynomolgus monkey PD-L1 (cynomolgus monkey, UniProt G7PSE7 19-238); experiment: direct ELISA on plate-coated recombinant cynomolgus monkey PD-L1; anti-human Fc-HRP, TMB, OD 650 nm
T4 construct: also called cynomolgus macaque PD-L1
T4 sequence (G7PSE7 entry or part of it limits assumed): as the sequence (Q9NZQ7 19-238 limits assumed) above, with A33T, A34S, S62N, R68Q, Q82R, F173L, T185A, T192I, H215L counted along it
Experimental: as §1

human PD-L1 on cells [15] = biological target: T2, human PD-L1 on cells; experiment: flow cytometry on CD4 T cells activated with anti-CD3; MFI; column head prints only EC50, unit taken from the axis Antibody Concentration (nM)

T1 sequence (Q9NZQ7 19-238 limits assumed): as the sequence (Q9NZQ7 19-238 limits assumed) above

- EC50 (recombinant human PD-L1 [1]): 0.0117 µg/mL
- EC50 (human PD-L1 on cells [2]): 0.32 nM
- EC50 (human PD-L1 on cells [3]): 1.03 nM
- EC50 (read off the curve) (human PD-L1 on cells [4]): ~1 nM
- EC50 (human PD-L1 on cells [5]): 1.12 nM
- Kd (human PD-L1 on cells [6]): 0.16 nM
- Kd (human PD-L1 on cells [7]): 0.025 nM
- Kd (human PD-L1 on cells [8]): 0.5 nM
- Kd (human PD-L1 on cells [9]): 0.91 nM
- IC50 (read off the curve) [10]: ~0.2 µg/mL
B1: chimeric anti-PD-L1 antibody 51D5 (antibody, human IgG1, V domains shown)
VH: QSVEESGGRLVTPGTPLTLTCIVSGFSLSSYWMSWVRRAPGKGLEWIGYINGGSGNPYYASWAKGRFTISKTSTTVDLKITSPTTEDTATYFCARGGESDDYVYGRYGLDPWGPGTLVTVSS
VL: AYDMTQTPASVSEPVGGTVTIKCQASQSISSWLSWYQQKPGQPPKLLIYDASKLASGVPSRFSGSGSGTQFTLTISDLECDDAATYYCQQDYSSYNVDNTFGGGTEVVVK
notes: also called chimeric 51D5; c51D5

- EC50 (recombinant human PD-L1 [1]): 0.0159 µg/mL
B2: h9A9-HZD1 (antibody, V domains shown)
VH: EVQLVESGGGLVQPGGSLRLSCAASGIDLSGYWMSWVRQAPGKGLEWVGIVDNDGSAYYASWVNGRFTISRDNSKNTLYLQMNSLRAEDTAVYYCARQSGDWTFDLWGQGTLVTVSS
VL: DIQMTQSPSTLSASVGDRVTITCQASQSIGRWLSWYQQKPGKAPKLLIYQASKLASGVPSRFSGSGSGTEFTLTISSLQPDDFATYYCQNNYDIIAYGNAFGGGTKVEIK
notes: also called humanized 9A9 HZD1

- EC50 (recombinant human PD-L1 [1]): 0.0126 µg/mL
B3: h9A9-HZD2 (antibody, V domains shown)
VH: EVQLVESGGGLVQPGGSLRLSCAASGFDVSGYWMSWVRQAPGKGLEWVGIVDNDGSAYYASWVNGRFTISRDNSKNTLYLQMNSLRAEDTAVYYCARQSGDWTFDLWGQGTLVTVSS
VL: DIQMTQSPSTLSASVGDRVTITCQASQSIGRWLSWYQQKPGKAPKLLIYQASKLASGVPSRFSGSGSGTEFTLTISSLQPDDFATYYCQNNYDIIAYGNAFGGGTKVEIK
notes: also called humanized 9A9 HZD2

- EC50 (recombinant human PD-L1 [1]): 0.267 µg/mL
B4: h15E9_HZD1 (antibody, V domains shown)
VH: EVQLVESGGGLVQPGGSLRLSCAASGFDISNYWMSWVRQAPGKGLEWVGIISTGGNTWYASWVKGRFTISRDNSKNTLYLQMNSLRAEDTAVYYCARVVIYGGTTSSFNLWGQGTLVTVSS
VL: DIQMTQSPSSLSASVGDRVTITCQSSQNVYNKIRLSWYQQKPGKAPKELIYAASSLASGVPSRFSGSGSGTEFTLTISSLQPEDFATYYCQGGYSGPIYAFGGGTKVEIK
notes: also called humanized 15E9 HZD1

- EC50 (recombinant human PD-L1 [1]): 1.62 µg/mL
B5: h15E9_HZD2 (antibody, V domains shown)
VH: EVQLVESGGGLVQPGGSLRLSCAASGFDISNYWMSWVRQAPGKGLEWVGIISTGGNTWYASWVKGRFTISRDNSKNTLYLQMNSLRAEDTAVYYCARVVIYGGTTSSFNLWGQGTLVTVSS
VL: DIQMTQSPSSLSASVGDRVTITCQSSQNVYNKIRLSWYQQKPGKAPKRLIYAASSLASGVPSRFSGSGSGTEFTLTISSLQPEDFATYYCQGGYSGPIYAFGGGTKVEIK
notes: also called humanized 15E9 HZD2

- EC50 (recombinant human PD-L1 [1]): 0.0156 µg/mL
B6: h51D5_HZD1 (antibody, V domains shown)
VH: EVQLVESGGGLVQPGGSLRLSCAASGFSLSSYWMSWVRRAPGKGLEWVGYINGGSGNPYYASWAKGRFTISRDNSKNTLYLQMNSLRAEDTAVYYCARGGESDDYVYGRYGLDPWGQGTLVTVSS
VL: DIQMTQSPSTLSASVGDRVTITCQASQSISSWLSWYQQKPGKAPKLLIYDASKLASGVPSRFSGSGSGTEFTLTISSLQPDDFATYYCQQDYSSYNVDNTFGGGTKVEIK
notes: also called humanized 51D5 HZD1

- EC50 (recombinant human PD-L1 [1]): 0.0169 µg/mL
B7: h51D5_HZD2 (antibody, V domains shown)
VH: EVQLVESGGGLVQPGGSLRLSCAASGFSLSSYWMSWVRQAPGKGLEWVGYINGGSGNPYYASWAKGRFTISRDNSKNTLYLQMNSLRAEDTAVYYCARGGESDDYVYGRYGLDPWGQGTLVTVSS
VL: DIQMTQSPSTLSASVGDRVTITCQASQSISSWLSWYQQKPGKAPKLLIYDASKLASGVPSRFSGSGSGTEFTLTISSLQPDDFATYYCQQDYSSYNVDNTFGGGTKVEIK
notes: also called humanized 51D5 HZD2

- EC50 (recombinant human PD-L1 [1]): 0.0138 µg/mL
- EC50 (human PD-L1 on cells [3]): 0.756 nM
- EC50 (human PD-L1 on cells [5]): 0.9 nM
- EC50 (human PD-L1 on cells [11]): 1.1 nM
- Kd (human PD-L1 on cells [7]): 0.026 nM
- EC50 (human PD-L1 on cells [12]): 0.58 nM
- Kd (human PD-L1 on cells [8]): 0.42 nM
- EC50 (read off the curve) (recombinant human PD-L1 [13]): ~0.004 µg/mL
- binding result [14]: no binding (tested: 1000 ng/ml)
B8: chimeric anti-PD-L1 antibody 15E9 (antibody, human IgG1, V domains shown)
VH: QSVEESGGRLVTPGTPLTLTCTVSGFDISNYWMSWVRQAPGKGLEYIGIISTGGNTWYASWVKGRFTISKTSTTVDLKMTSLTTEDTATYFCVRVVIYGGTTSSFNLWGPGTLVTVSS
VL: QVLTQTASPVSAAVGGTVTINCQSSQNVYNKIRLSWFQQKSGQPPKELIYAASSLASGVPSRFKGSGSGTEFTLTISDLECDDAATYYCQGGYSGPIYAFGGGTEVVVK

- EC50 (human PD-L1 on cells [11]): 1.6 nM
- EC50 (read off the curve) (recombinant human PD-L1 [13]): ~0.006 µg/mL
- EC50 (read off the curve) [14]: ~0.005 µg/mL
- EC50 (human PD-L1 on cells [15]): 7.7 nM
B9: chimeric anti-PD-L1 antibody 43G2 (antibody, human IgG1, V domains shown)
VH: QSVEESGGRLVTPGTPLTLTCTVSGFSLSSYAMGWVRQAPGEGLEYIGFIDTHGSAYYATWAKGRFTISRTSTTVDLKITSPTTEDTATYFCARNVWTNAGYFNLWGPGTLVTVSS
VL: DVVMTQTPSSVSAAVGGTVTIKCQASQNIYTNLAWYQQKPGQPPKLLIYSASTLASGVPSRFKGSGSGTQFTLTISDLECADAATYYCQTYGALIINGGAFGGGTEVVVK

- EC50 (human PD-L1 on cells [11]): 1.7 nM
- EC50 (read off the curve) (recombinant human PD-L1 [13]): ~0.007 µg/mL
- EC50 (read off the curve) [14]: ~0.006 µg/mL
- EC50 (human PD-L1 on cells [15]): 1.3 nM
B10: chimeric anti-PD-L1 antibody 23D12 (antibody, human IgG1, V domains shown)
VH: QSVEESGGRLVTPGTPLTLTCTVSGFSLSNYVMGWVRQAPGKGLEYIGIISNSDNTYYATWATGRFTISKTSTTVDLKMTSLTTEDTATYFCARVDTYYNDFNLWGPGTLVTVSS
VL: QVLTQTPSSVEAAVGGTVTIKCQASEDIERYLAWYQQKPGQPPKQLIYDASKLASGVSSRFKGSGSGTEFTLTISGVQCDDAATYYCQHGYIYSSGNPFGGGTEVVVK

- binding result [14]: no binding (tested: 1000 ng/ml)
- IC50 (read off the curve) [10]: ~0.02 µg/mL
- EC50 (human PD-L1 on cells [15]): 0.75 nM
B11: chimeric anti-PD-L1 antibody 27H2 (antibody, human IgG1, V domains shown)
VH: QSLEESGGDLVKPGASLTLTCTASGFSFSSGDYMCWVRQAPGKGLEGIACIYGGSSGSTYYANWAKGRFTISKTSSTTVTLQMTSLAAADTATYFCARDFRDVGYGYASFRLWGPGILVTVSS
VL: DIVMTQTPASVSEPVGGTVTIKCQASQSISSWLSWYQQKPGQPPKLLIYGASNLESGVSSRFKGSGSGTEYTLTISDLECADAATYYCQSNYGSSSSSLNAFGGGTEVVVK
